The text below walks through data of IntAct's records for PubMed 22056771.

The target of this assay is T1, atg7_yeast ATG7 (UniProt P38862).
T1 sequence: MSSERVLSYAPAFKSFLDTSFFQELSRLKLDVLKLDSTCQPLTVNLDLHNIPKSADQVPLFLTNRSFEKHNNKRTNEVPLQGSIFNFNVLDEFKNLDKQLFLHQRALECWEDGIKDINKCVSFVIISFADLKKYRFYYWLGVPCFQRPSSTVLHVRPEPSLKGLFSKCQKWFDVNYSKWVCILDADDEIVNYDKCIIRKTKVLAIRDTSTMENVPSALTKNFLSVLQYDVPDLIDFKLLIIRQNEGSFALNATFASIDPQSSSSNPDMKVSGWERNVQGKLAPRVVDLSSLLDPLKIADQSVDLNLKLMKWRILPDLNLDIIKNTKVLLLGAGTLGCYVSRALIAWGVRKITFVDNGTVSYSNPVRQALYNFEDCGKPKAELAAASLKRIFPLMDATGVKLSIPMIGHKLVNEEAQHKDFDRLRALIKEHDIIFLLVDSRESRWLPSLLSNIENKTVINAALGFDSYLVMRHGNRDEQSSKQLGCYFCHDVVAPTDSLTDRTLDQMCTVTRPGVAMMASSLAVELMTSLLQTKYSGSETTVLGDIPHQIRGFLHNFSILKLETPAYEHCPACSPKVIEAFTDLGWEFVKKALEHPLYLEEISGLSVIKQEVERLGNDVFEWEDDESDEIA

As to “Microtubule-associated protein 1 light chain 3 beta (Homo sapiens) (from UniProt Q9GZQ8) K65Y”, the “effect of a mutation on the interaction” value was “increasing interaction”.
